This note sets out measurements from paper PMC6175940, “Increasing the distance between two monomers of topoisomerase IIβ under the action of antitumor agent 4β-sulfur-(benzimidazole) 4′-demethylepipodophyllotoxin”.

In this data set the target is hTop2βcore (human topoisomerase IIβ catalytic core) (human, UniProt Q02880 450-1206). Briefly: X-ray crystallography (2.54 Å); 100 mM MgCl2; crystallized with 2 mM compound C-Bi (not visible in the structure); cleavage complex; Crystallization: protein and DNA (1.2-fold molar ratio to protein) with 2 mM C-Bi; reservoir 100 mM MgCl2, 50 mM sodium citrate pH 5.3, 20% MPD, 0.05% ethyl acetate, 4 °C; protein buffer 30 mM Tris-HCl pH 7.5, 70 mM NaCl, 2 mM β-mercaptoethanol, 1 mM EDTA. The conditions noted are these: protein: recombinant; chain copies: 2; blunt; self-complementary, 2 copies of the same strand.
Chain of hTop2βcore (human topoisomerase IIβ catalytic core) (Q02880 450-1206): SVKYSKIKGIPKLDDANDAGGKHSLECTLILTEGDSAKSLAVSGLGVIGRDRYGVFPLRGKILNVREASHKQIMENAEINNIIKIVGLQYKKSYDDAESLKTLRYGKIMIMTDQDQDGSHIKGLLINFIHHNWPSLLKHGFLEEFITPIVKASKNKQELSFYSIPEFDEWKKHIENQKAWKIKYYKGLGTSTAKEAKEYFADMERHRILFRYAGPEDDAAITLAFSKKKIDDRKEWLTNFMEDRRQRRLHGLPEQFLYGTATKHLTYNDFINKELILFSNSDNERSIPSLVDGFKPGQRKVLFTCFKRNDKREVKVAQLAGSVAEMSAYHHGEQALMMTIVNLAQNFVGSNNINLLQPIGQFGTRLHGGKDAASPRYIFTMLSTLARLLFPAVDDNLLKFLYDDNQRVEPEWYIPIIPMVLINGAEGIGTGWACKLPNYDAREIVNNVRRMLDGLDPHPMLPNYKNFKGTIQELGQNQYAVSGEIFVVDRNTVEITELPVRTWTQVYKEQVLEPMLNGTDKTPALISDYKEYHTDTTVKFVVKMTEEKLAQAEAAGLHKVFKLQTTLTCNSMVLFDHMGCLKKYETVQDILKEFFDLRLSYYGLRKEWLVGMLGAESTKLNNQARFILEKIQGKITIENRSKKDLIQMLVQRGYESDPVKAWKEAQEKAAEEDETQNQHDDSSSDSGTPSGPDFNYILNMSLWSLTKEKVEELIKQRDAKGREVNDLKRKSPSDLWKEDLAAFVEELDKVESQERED

B1: 20-bp DNA substrate for crystallography (dsDNA)
DNA 1: AGCCGAGCTGCAGCTCGGCT
DNA 2: AGCCGAGCTGCAGCTCGGCT
With B1, the binding result is on record as “binds”.
